Experimental data published in patent US20230037552A1 (published 2023).

What was measured:
[1] = molecular target: T1, MAGEA1 peptide on HLA-A*02:01 (human); experiment: multimer staining
T1 peptide: KVLEYVIKV

[2] = molecular target: T2, ASTN1 peptide on HLA-A*02:01 (human); experiment: cytokine release
T2 peptide: KLYGLDWAEL

[3] = molecular target: T3, MAGEA1 KVL peptide, threonine substitution at position 5 (Y) peptide on HLA-A*02:01 (human); experiment: cytokine release
T3 peptide: KVLETVIKV

[4] = molecular target: T4, MAGEA1 peptide on HLA-A*02:17 (human); experiment: cytokine release
T4 peptide: KVLEYVIKV

[5] = molecular target: T5, MAGEA1 KVL peptide, threonine substitution at position 3 (L) peptide on HLA-A*02:01 (human); experiment: cytokine release
T5 peptide: KVTEYVIKV

[6] = molecular target: T6, MAGEA1 peptide on HLA-A*02:04 (human); experiment: cytokine release
T6 peptide: KVLEYVIKV

[7] = molecular target: T7, MAGEA1 KVL peptide, threonine substitution at position 1 (K) peptide on HLA-A*02:01 (human); experiment: cytokine release
T7 peptide: TVLEYVIKV

[8] = molecular target: T8, MAGEA1 peptide on HLA-A*02:16 (human); experiment: cytokine release
T8 peptide: KVLEYVIKV

binding result [1]: recognises
binding result [2]: no recognition
binding result [3]: no recognition
binding result [4]: recognises
binding result [5]: no recognition
binding result [6]: recognises
binding result [7]: no recognition
binding result [8]: recognises
B1: TCR T15.8-4.3-83 (TCR, V domains shown)
Valpha: AQKVTQAQTEISVVEKEDVTLDCVYETRDTTYYLFWYKQPPSGELVFLIRRNSFDEQNEISGRYSWNFQKSTSSFNFTITASQVVDSAVYFCALSEVASGGSYIPTFGRGTSLIVHP
Vbeta: SQTIHQWPATLVQPVGSPLSLECTVEGTSNPNLYWYRQAAGRGLQLLFYSVGIGQISSEVPQNLSASRPQDRQFILSSKKLLLSDSGFYLCAWSGSGGNQPQHFGDGTRLSIL
